Values belong to the molecule of their own block, whether it stands above or below them.
Experiments:
Assay type in all cases: cell-based
[1] = tested on: Sema3A-induced growth cone collapse; assay: Sema3A-induced growth cone collapse in chick DRG cultures
Excerpt: The Nogo-66 receptor protein is necessary for Nogo-66 action and not simply a binding site with a function unrelated to inhibition of axonal outgrowth. A first prediction is that phosphoinositol specific-Phospholipase C (PI-PLC) treatment to remove glycophosphatidylinositol (GPI)-linked proteins from the neuronal surface will render neurons insensitive to Nogo-66. This prediction holds true for chick E13 dorsal root ganglion neurons; PI-PLC treatment abolishes both AP-Nogo binding and GST-Nogo-66-induced growth cone collapse (FIG. 10a-c). As a control, Sema3A responses in the parallel cultures are not altered by PI-PLC treatment.
For further testing, a synthetic peptide containing amino acid residues #1055-1094 of hNgR, acetylated at the […] was used [hereinafter “Peptide 140”]. […] Antagonist of Nogo-66 inhibitory activity may act by competing for, and thereby blocking NgR binding sites. To determine the antagonistic activity of Peptide 140, the above synthetic form of the peptide was added to E12 chick DRG explant cultures approximately 10 min before application of various concentrations of GST-NogoA (residues #1055-1120), TPA or Sema3A. 30 min later, cultures were fixed and growth cone collapse was assessed following staining with rhodamine-phalloidin.

NgRL1 chimeric receptor = biological target: T1, NgRL1 chimeric receptor (Mus musculus, UniProt P11627+Q99PI8); assay: Growth cone collapse in E7 retinal ganglion cells infected with NgRL1
T1 construct: L1NgR encodes residues 1-451 of mouse NgR fused to the transmembrane and cytoplasmic tail of mouse L1; expressed in transfected cells; host or cells: chick E7 retinal ganglion cells infected with recombinant HSVL1NgR
Description: (§1) Growth cone collapse in response to GST-hNogo-A (1055-1120) was investigated in infected RGC cultures. Retinal explants infected with recombinant viral preparations of PlexinA1 (PlexA1), wild-type NgR (wtNgR), NgRL1 chimeric receptor in which the GPI domain has been replaced by the transmembrane region and cytoplasmic tail from the mouse adhesion protein L1 (NgRL1), or NgR carboxy terminal deletion mutant (NgRΔCT) for 12 hr. Following infection, the cells were treated for 30 min with 0, 50, 250, or 500 nM GST-hNogo-A (1055-1120) (GrandPre et al., Nature 403: 439-444, 2000), fixed with 4% paraformaldehyde with 0.1 M PO4 and 20% sucrose, and stained with phalloidin. […] Cells infected with NgRΔCT were insensitive to GST-hNogo-A (1055-1120). The CT region of NgR is therefore required for effective NgR inhibitory signaling.
To test the signaling capability of NgRLI, recombinant HSVL1NgR preparations were produced and used to infect E7 RGCs. Infected RGCs were treated with GST-hNogo-A (1055-1120) and growth cone collapse was assessed (FIG. 20). […] Because the intracellular signals induced by Nogo have not been elucidated, it remains to be determined if ligand binding effects signaling events at caveolar microdomains.

PlexinA1 (PlexA1) = assay: Growth cone collapse in E7 retinal ganglion cells infected with control HSV PlexinA1
Excerpt: (§2) Both dorsal root ganglion and retinal neurons from E7 chick embryos were examined. The Nogo responses in the dorsal root ganglion neurons from this developmental stage are weak but slight responses can be detected in some cultures (data not shown).
as §1

wild-type NgR (wtNgR) = biological target: T2, wild-type NgR (wtNgR) (Mus musculus, UniProt Q99PI8); assay: Growth cone collapse in E7 retinal ganglion cells infected with HSV wild-type NgR
T2 construct: expressed in transfected cells; host or cells: chick E7 retinal ganglion cell explants infected with recombinant HSV
T2 sequence (Q99PI8 27-447): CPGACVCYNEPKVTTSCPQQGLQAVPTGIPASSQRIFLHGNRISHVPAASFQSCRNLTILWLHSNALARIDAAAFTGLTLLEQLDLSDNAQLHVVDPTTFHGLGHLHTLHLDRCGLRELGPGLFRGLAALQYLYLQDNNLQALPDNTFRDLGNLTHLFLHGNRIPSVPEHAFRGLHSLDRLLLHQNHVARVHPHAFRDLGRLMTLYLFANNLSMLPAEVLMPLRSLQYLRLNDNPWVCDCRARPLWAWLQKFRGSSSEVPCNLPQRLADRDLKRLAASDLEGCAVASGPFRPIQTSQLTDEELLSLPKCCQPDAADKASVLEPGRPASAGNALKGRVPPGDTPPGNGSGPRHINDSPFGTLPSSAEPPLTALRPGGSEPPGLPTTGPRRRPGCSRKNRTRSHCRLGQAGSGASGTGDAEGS
Description: as §2
Because the mouse NgRCT domain was determined to be dispensable for hNogo-A (1055-1120) binding, the ability of NgRΔCT to mediate Nogo-dependent inhibition was examined. HSVNgR constructs transfected into HEK293T cells mediated the expression of mNgR proteins of the predicted molecular weight, as determined by SDS-PAGE and anti-Myc and anti-NgR immunoblotting (FIG. 19A). Day E7 chick retinal ganglion cells (RGCs) were grown for 12 hr, then further incubated for 24 hr with HSVNgR preparations. Explants were fixed with 4% paraformaldehyde with 0.1 M PO4 and 20% sucrose and stained with phalloidin or with anti-myc antibodies. HSVNgR protein expression was detected in axons of infected (RGC) cultures (FIG. 19B).
Growth cone collapse in response to GST-hNogo-A (1055-1120) was investigated in infected RGC cultures. Retinal explants infected with recombinant viral preparations of PlexinA1 (PlexA1), wild-type NgR (wtNgR), NgRL1 chimeric receptor in which the GPI domain has been replaced by the transmembrane region and cytoplasmic tail from the mouse adhesion protein L1 (NgRL1), or NgR carboxy terminal deletion mutant (NgRΔCT) for 12 hr. […]

[2] = listed as GST-hNogo-A (1055-1120)

T1 sequence (Q99PI8+P11627 fused, change not shown): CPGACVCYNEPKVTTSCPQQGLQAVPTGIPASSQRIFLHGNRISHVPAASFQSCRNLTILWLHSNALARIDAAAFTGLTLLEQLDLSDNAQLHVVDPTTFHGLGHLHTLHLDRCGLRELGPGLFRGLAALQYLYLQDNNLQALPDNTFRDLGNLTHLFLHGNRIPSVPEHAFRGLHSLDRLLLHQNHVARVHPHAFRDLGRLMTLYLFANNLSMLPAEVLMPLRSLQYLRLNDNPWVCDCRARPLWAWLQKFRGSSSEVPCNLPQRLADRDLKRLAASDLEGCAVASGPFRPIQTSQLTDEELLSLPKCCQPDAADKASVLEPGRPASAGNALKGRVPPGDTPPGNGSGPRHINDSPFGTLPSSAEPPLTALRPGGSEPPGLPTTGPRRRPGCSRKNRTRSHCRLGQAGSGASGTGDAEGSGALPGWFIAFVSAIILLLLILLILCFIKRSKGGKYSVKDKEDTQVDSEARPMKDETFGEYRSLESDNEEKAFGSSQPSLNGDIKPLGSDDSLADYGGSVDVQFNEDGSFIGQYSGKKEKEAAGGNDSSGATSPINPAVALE

Molecule: Peptide 140: synthetic peptide of amino acids #1055-1094 of the human NogoA protein, acetylated and amidated at the termini (Ac-RIYKGVIQAIQKSDEGHPFRAYLESEVAISEELVQKYSNS-NH2; UniProt Q9NQC3 1055-1094, looked up, fragment)
effect on Sema3A-induced growth cone collapse (in words) [1]: no significant reduction in collapse

growth cone collapse response (in words) (NgRL1 chimeric receptor; 50 nM GST-hNogo-A (1055-1120)): not responsive
growth cone collapse response (in words) (wild-type NgR (wtNgR); [2]): underwent growth cone collapse
growth cone collapse response (in words) (wild-type NgR (wtNgR); listed as Nogo-66): sensitive to Nogo-66-induced collapse
B1: GST-Nogo: GST fusion protein of the 66 amino acid lumenal-extracellular fragment of Nogo-A, expressed in E. coli (protein)
chain: RIYKGVIQAIQKSDEGHPFRAYLESEVAISEELVQKYSNSALGHVNCTIKELRRLFLVDDLVDSLK
modifications: also: GST fusion protein
notes: GST fusion protein of the 66 amino acid lumenal-extracellular fragment of Nogo-A, expressed in E. coli
growth cone collapse response (in words) (NgRL1 chimeric receptor; high concentrations of GST-hNogo-A (1055-1120)): transduces Nogo signals as efficiently as wtNgR
growth cone collapse response (in words) (PlexinA1 (PlexA1); [2]): did not respond
growth cone collapse response (in words) (PlexinA1 (PlexA1); listed as Nogo-66): does not alter Nogo responses
